Source: paper PMC9599254, “Human Milk Oligosaccharide Utilization in Intestinal Bifidobacteria Is Governed by Global Transcriptional Regulator NagR” (mSystems, 2022)

How the values were obtained:
[1] = test system: NagR (Bifidobacterium longum subsp. infantis ATCC 15697 (= JCM 1222)); assay: EMSA; conditions: no robust shift even at >500 nM NagR; 10 mM Tris-HCl pH 7.5, 50 mM KCl, 5 mM MgCl2, 2.25 mM DTT, 0.125% Tween 20, 2.5% glycerol; 1 nM probe, 0-2000 nM NagR, 60 min, room temperature; 6% gel, 0.5x …
NagR = molecular target: T1, NagR (Bifidobacterium longum, UniProt A0ACD7UQ49); assay: EMSA, disruption of NagR-DNA complex; assay type: binding; conditions: 25 nM NagR, 1 nM IRD700-labelled hmoA operator probe; pH 7.5, 50 mM KCl, 5 mM MgCl2, room temperature; effector releasing DNA
T1 construct: gene BLIJ_0896; full-length as described, N-terminal His tag, codon-optimized synthetic gene in in-house pET-49b(+), expressed in E. coli BL21(DE3), Ni-NTA purified; tag removal not mentioned
T1 sequence (A0ACD7UQ49 36-409 limits assumed): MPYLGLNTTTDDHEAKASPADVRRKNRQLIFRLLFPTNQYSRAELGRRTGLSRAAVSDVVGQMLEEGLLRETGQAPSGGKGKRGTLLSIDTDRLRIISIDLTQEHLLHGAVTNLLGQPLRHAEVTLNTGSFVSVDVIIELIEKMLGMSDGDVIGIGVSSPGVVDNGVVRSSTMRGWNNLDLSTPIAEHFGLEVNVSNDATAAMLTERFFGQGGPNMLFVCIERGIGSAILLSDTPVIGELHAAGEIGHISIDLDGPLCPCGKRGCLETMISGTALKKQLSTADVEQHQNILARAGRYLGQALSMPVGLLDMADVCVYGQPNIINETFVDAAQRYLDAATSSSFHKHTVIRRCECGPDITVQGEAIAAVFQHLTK

EC50 (NagR)	Molecule	K half [1]
	GGGCCTGATGCAAATATGTTAAGGCTGTTGACAGTGCTGGCTCCCGTAC (double strand) [hmoA6 probe]	> 500 nM
330 ± 50 µM	CC(=O)N[C@H]1C(O)O[C@H](CO)[C@@H](O)[C@@H]1O (stereo partly shown) [GlcNAc]	
	ATTTCGTCGTTGAAATTGTTATGAAACTTCACCAATAAATTCCAGTGTA (double strand) [nagB_II probe]	> 500 nM
490 ± 60 µM	CC(=O)N[C@H]1[C@@H](OP(=O)(O)O)O[C@H](CO)[C@@H](O)[C@@H]1O [GlcNAc-1P]	
